Test results published in PMC9297724, “SARS-CoV-2 Epitopes following Infection and Vaccination Overlap Known Neutralizing Antibody Sites” (Research, 2022).
Where no end group is shown, it is not given here.

Target: T1, ACE2-Fc (human, UniProt Q9BYF1)
T1 construct: also called recombinant human ACE2; angiotensin converting enzyme-2; source: bought: GenScript
Test: ELISA; ACE2-Fc (4 ug/mL) captured on goat anti-human IgG Fc coated plates; biotin-labeled S481 peptide in two-fold dilutions 2000-3.90 ng/mL in 1% BSA/0.05% PBST, 1 hour at room temperature; detected with HRP-streptavidin and TMB, absorbance at 450 nm
Details: both partners purified

T1 sequence (Q9BYF1 18-740): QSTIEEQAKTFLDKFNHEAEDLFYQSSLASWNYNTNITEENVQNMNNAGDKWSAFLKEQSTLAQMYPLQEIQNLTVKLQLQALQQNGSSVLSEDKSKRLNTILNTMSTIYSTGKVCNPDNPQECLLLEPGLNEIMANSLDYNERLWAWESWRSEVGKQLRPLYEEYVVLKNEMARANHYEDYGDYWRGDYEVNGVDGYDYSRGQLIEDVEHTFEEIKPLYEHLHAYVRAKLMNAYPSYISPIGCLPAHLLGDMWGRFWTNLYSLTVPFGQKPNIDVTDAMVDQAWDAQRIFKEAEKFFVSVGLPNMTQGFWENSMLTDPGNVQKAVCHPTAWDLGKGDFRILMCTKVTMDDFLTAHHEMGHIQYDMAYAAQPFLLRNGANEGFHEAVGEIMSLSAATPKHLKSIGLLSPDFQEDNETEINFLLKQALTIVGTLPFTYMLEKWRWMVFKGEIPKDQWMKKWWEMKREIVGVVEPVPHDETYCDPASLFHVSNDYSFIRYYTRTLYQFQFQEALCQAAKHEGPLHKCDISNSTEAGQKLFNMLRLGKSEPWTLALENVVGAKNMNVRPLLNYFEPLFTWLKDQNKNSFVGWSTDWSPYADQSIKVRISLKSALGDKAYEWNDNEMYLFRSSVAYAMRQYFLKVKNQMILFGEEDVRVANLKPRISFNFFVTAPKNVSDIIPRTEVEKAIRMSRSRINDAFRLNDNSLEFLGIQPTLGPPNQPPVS

## NGVEGFNCYFPLQSY (also: biotin label, position not given here, also called S481 peptide) [S481-495 peptide]
  binding result: binds
